# In patent US20130177572A1 (X BODY, published 2013):
# Molecular target: T1, human PDGFRβ (human, UniProt P09619 33-530, limits assumed)
# T1 construct: also called hPDGFRβ; recombinant human PDGFRβ
# Experiment: ELISA of unpaired VL domains: plate coated with human PDGFRβ or human Fc, OD 450 nm
# Procedure: A PDGFRβ binding ELISA assay was performed to assess the binding of the scFv to immobilized PDGFRβ and to determine the EC50. Specifically, 2 ug/mL of human PDGFRβ and human Fc or IgG in PBS was immobilized on Maxisorp plates at 4° C. overnight. The plate was then washed and blocked with superblock. […] 100 ul of the diluted scFv lysate was loaded into each well of Maxisorp plates and incubated for 1 hour at room temperature. scFv that bound to immobilized PDGFRβ was detected by anti-flag antibody-HRP at 1:5000 dilution and a TMB substrate. The plate was read on a Molecular Device plate reader with end point assay at OD 450 nm.
# T1 sequence (P09619 33-530 limits assumed): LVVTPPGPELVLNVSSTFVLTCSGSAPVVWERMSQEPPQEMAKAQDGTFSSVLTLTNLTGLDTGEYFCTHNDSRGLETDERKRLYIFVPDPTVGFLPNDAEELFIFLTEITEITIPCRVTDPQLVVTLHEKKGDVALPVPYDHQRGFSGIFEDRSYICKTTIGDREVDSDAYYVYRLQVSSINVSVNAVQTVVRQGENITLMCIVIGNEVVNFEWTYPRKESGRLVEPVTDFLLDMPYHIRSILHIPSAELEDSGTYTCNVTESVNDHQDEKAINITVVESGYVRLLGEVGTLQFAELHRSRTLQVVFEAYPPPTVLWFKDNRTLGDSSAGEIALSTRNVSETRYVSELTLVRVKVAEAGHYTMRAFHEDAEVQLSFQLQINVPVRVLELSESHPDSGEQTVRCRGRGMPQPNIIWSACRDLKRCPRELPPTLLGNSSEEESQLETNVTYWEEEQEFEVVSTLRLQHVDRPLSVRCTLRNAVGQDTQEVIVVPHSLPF
row,Binder,binding result
1,"B11 VL (other, unpaired VL domain; also called unpaired B11 VL domain) VL domain: QSVLTQSPGTLSLSPGERATLSCRASQSVSSNYLAWYQQKPGQAPRLLIYGASSRASGIPVRVSGSGSGTDFTLTISRLEPEDFAVYYCQQYGSSPWTFGQGTKLTVL",no binding (tested: no concentration on the sheet)
2,"H8 VL (other, unpaired VL domain; also called unpaired H8 VL domain) VL domain: QSVLTQSPGTLSLSPGERATLSCRASQSVSSNYLAWYLQKPGQAPRLLISGASSRATGIPDRFSGSGSGTDFTLTISRLEPEDFAVYYCQQYAGSPFTFGPGTKLTVL",no binding (tested: no concentration on the sheet)
3,"G8 VL (other, unpaired VL domain; also called unpaired G8 VL domain) VL domain: QSVLTQSPGTLSLSPGDRATLSCRASQSLSGTYLAWYQQKPGQAPRLLIYDASNRAAGIPKRFSGSGSRTDFTLTISRVDPADSAVYYCQQYGSALLTFGGGTKVTVL",no binding (tested: no concentration on the sheet)
4,"G11 VL (other, unpaired VL domain; also called unpaired G11 VL domain) VL domain: EIVLTQSPGTLSLSPGEGATLSCRASQSVSSRNLAWYQQKPGQAPRLLIYGGSIRASGTSTRFSGSGSGTDFTLTINRLEPEDFAVYYCQQYGDSVFTFGPGTKVDIK",no binding (tested: no concentration on the sheet)
5,"A8 VL (other, unpaired VL domain; also called unpaired A8 VL domain) VL domain: QAGLTQSPDFQSVTPKERVTITCRASRYIGSNLHWYQQKPDQPPKLLIKLASQSFSGVPPRFSGGGSGTDFTLTINGLEAEDAATYYCHQTGSFPYTFGQGTKLTVL",no binding (tested: no concentration on the sheet)
6,"C7 VL (other, unpaired VL domain; also called unpaired C7 VL domain) VL domain: DIVMTQTPLSLSVTPGQPASISCKSSQSLLHSDGKTHLFWYLQRPGQSPQLLIYEVSGRFSGVSERFSGSGSGTDFTLKISRVEAEDVGVYYCMQGLHIPHTFGQGTKVEIK",no binding (tested: no concentration on the sheet)
7,"H11 VL (other, unpaired VL domain; also called unpaired H11 VL domain) VL domain: QSVLTQSPDFQSVTPKEKVTITCRASQSIGSSLHWYQQKPDQSPKLLITFASQSFSGVPSRFSGSGSGTDFTLTINSLEAEDAATYYCHQSRNLPFTFGPGTKLTVL",no binding (tested: no concentration on the sheet)
8,"H10 VL (other, unpaired VL domain; also called unpaired H10 VL domain) VL domain: QSVLTQSPDFQSVSPKDKVTITCRASQSIGSSLHWYQQKPGQSPKLLIKYSSQSFSGVPSRFSGSASGTEFTLTITGLEAEDAATYYCHQSSSLPHTFGQGTKVTVL",no binding (tested: no concentration on the sheet)

# Molecular target: T1, human PDGFRβ
# Experiment: solution equilibrium binding: 35S-Met labelled in vitro translated protein, human PDGFRβ titrated, capture on protein A beads, scintillation counts
# Procedure: The affinity of several scFvs was determined by solution based equilibrium binding assay. Specifically, 120 pmol of scFv RNA was translated into free protein with ³⁵S Met incorporated. The translated reaction mixture was 3-fold diluted in binding buffer containing 1×PBS with 0.025% triton, 1 mg/mL BSA and 0.1 mg/mL sssDNA. Human PDGFRβ was diluted in the same binding buffer to final concentrations from 100 nM to 0 nM. The diluted scFv mixture was incubated with hPDGFRβ in final volume of 100 ul on Kingfisher plates (Thermofisher Scientific, 97002084). Following incubation, 25 ul of protein A magnetic beads (Invitrogen) were used to capture the PDGFRβ from solution. The captured PDGFRβ was washed and eluted in kingfisher Reader (Thermofisher Scientific). The amount of scFv (labeled with ³⁵S Met) bound to the magnetic bead-immobilized hPDGFRβ was counted using a scintillation counter and the Kd was calculated with Graph Pad Prism 5.
row,Kd [nM],Binder
1,24.4,"H8 scFv (scFv, V domains shown, VL of the second round pool paired with XB1511 VH) VH: QVQLVQSGAEVKKPGSSVKVSCKASGGTFSSYAISWVRQAPGQGLEWMGGIIPIFGTANYAQKFQGRVTITADESTSTAYMELSSLRSEDTAVYYCAIHGGDRSYWGQGTLVTVSS VL: QSVLTQSPGTLSLSPGERATLSCRASQSVSSNYLAWYLQKPGQAPRLLISGASSRATGIPDRFSGSGSGTDFTLTISRLEPEDFAVYYCQQYAGSPFTFGPGTKLTVL"
2,23.2,"H10 scFv (scFv, V domains shown, VL of the second round pool paired with XB1511 VH) VH: QVQLVQSGAEVKKPGSSVKVSCKASGGTFSSYAISWVRQAPGQGLEWMGGIIPIFGTANYAQKFQGRVTITADESTSTAYMELSSLRSEDTAVYYCAIHGGDRSYWGQGTLVTVSS VL: QSVLTQSPDFQSVSPKDKVTITCRASQSIGSSLHWYQQKPGQSPKLLIKYSSQSFSGVPSRFSGSASGTEFTLTITGLEAEDAATYYCHQSSSLPHTFGQGTKVTVL"
3,12.9,"H11 scFv (scFv, V domains shown, VL of the second round pool paired with XB1511 VH) VH: QVQLVQSGAEVKKPGSSVKVSCKASGGTFSSYAISWVRQAPGQGLEWMGGIIPIFGTANYAQKFQGRVTITADESTSTAYMELSSLRSEDTAVYYCAIHGGDRSYWGQGTLVTVSS VL: QSVLTQSPDFQSVTPKEKVTITCRASQSIGSSLHWYQQKPDQSPKLLITFASQSFSGVPSRFSGSGSGTDFTLTINSLEAEDAATYYCHQSRNLPFTFGPGTKLTVL"

# Molecular target: T1, human PDGFRβ
# Experiment: ELISA: plate coated with 2 ug/mL human PDGFRβ or human IgG, in vitro translated crude scFv lysate diluted 1:3, anti-flag-HRP, OD450
# Procedure: (§1) A PDGFRβ binding ELISA assay was performed to assess the binding of the scFv to immobilized PDGFRβ and to determine the EC50. Specifically, 2 ug/mL of human PDGFRβ and human Fc or IgG in PBS was immobilized on Maxisorp plates at 4° C. overnight. The plate was then washed and blocked with superblock. In vitro translated crude scFv lysate was diluted 1:3 in 1×PBST. 100 ul of the diluted scFv lysate was loaded into each well of Maxisorp plates and incubated for 1 hour at room temperature. scFv that bound to immobilized PDGFRβ was detected by anti-flag antibody-HRP at 1:5000 dilution and a TMB substrate. The plate was read on a Molecular Device plate reader with end point assay at OD 450 nm.
row,binding result,Binder
1,binds,"B6 (scFv, V domains shown, also called XB2202/B6 scFv) VH: QVQLVQSGAEVKKPGSSVRVSCKASGGTFSRHAISWVRQAPGQGLEWIGGILPILKTPNYAQRFQGRVTINADESTSTVYMEMSSLRSEDTAVYYCATHGGDRSYWGQGTLVTVSS VL: EIVLTQSPGTLSLSPGERATLSCRASQSFGSNYLAWYQHKPGQAPRLLIFAASNRATGIPDRFTGSASGTDFTLTINRVEPEDLAVYYCQQYGSFPYSFGQGTKLEIK"
2,binds,"D1 (scFv, V domains shown, also called XB2202/D1 scFv) VH: QVQLVQSGAEVKKPGSSVRVSCKASGGTFSRHAISWVRQAPGQGLEWIGGILPILKTPNYAQRFQGRVTINADESTSTVYMEMSSLRSEDTAVYYCATHGGDRSYWGQGTLVTVSS VL: DIVMTQTPLSLSVTPGQPAAISCKSSQSLVHRDGKTYLYWYLQKPGHSPQLLVYEASSRFSGVPDRISGSASGTQFTLNISRVEAEDVGLYYCMQSRNLPKTFGQGTKVEIK"
3,binds,"H5 (scFv, V domains shown, also called XB2202/H5 scFv) VH: QVQLVQSGAEVKKPGSSVRVSCKASGGTFSRHAISWVRQAPGQGLEWIGGILPILKTPNYAQRFQGRVTINADESTSTVYMEMSSLRSEDTAVYYCATHGGDRSYWGQGTLVTVSS VL: SYELTQPPSVSMAPGKTARITCGGNNLGSKIVHWYQQKPGQAPVVVIYSDRDRPSGVPERFSGSNSGNSATLTISGVEAGDEADYYCQVWDSATDHVVFGGGTKLTVL"
4,binds,"F3 (scFv, V domains shown, also called XB2202/F3 scFv) VH: QVQLVQSGAEVKKPGSSVRVSCKASGGTFSRHAISWVRQAPGQGLEWIGGILPILKTPNYAQRFQGRVTINADESTSTVYMEMSSLRSEDTAVYYCATHGGDRSYWGQGTLVTVSS VL: QSVLTQPPSVSVAPGKTARITCGGNNIGSKSVHWYQQKPGQAPVLVIYYDSDRPSGIPERFSGSNSGNTATLTISRVEAGDEADYYCQVWDSSSDHWVFGGGTKLTVL"
5,binds,"G5 (scFv, V domains shown, also called XB2202/G5 scFv) VH: QVQLVQSGAEVKKPGSSVRVSCKASGGTFSRHAISWVRQAPGQGLEWIGGILPILKTPNYAQRFQGRVTINADESTSTVYMEMSSLRSEDTAVYYCATHGGDRSYWGQGTLVTVSS VL: DIQMTQSPSSLSASVGDRVTITCRASQDISSSLAWYQQKPGKAPKPLIYDASTLQTGVPSRFSGRASGTDFTLTIDSLQPEDFATYCCQQFNSYPLSFGGGTKVELKR"

# Molecular target: T1, human PDGFRβ
# Experiment: ELISA: plate coated with 2 ug/mL human PDGFRβ or human Fc, in vitro translated crude lysate diluted 1:3, anti-flag-HRP, OD450
# Procedure: as §1
row,binding result,Binder
1,binds,"A8 scFv (scFv, V domains shown, VL of the second round pool paired with XB1511 VH) VH: QVQLVQSGAEVKKPGSSVKVSCKASGGTFSSYAISWVRQAPGQGLEWMGGIIPIFGTANYAQKFQGRVTITADESTSTAYMELSSLRSEDTAVYYCAIHGGDRSYWGQGTLVTVSS VL: QAGLTQSPDFQSVTPKERVTITCRASRYIGSNLHWYQQKPDQPPKLLIKLASQSFSGVPPRFSGGGSGTDFTLTINGLEAEDAATYYCHQTGSFPYTFGQGTKLTVL"
2,binds,"G8 scFv (scFv, V domains shown, VL of the second round pool paired with XB1511 VH) VH: QVQLVQSGAEVKKPGSSVKVSCKASGGTFSSYAISWVRQAPGQGLEWMGGIIPIFGTANYAQKFQGRVTITADESTSTAYMELSSLRSEDTAVYYCAIHGGDRSYWGQGTLVTVSS VL: QSVLTQSPGTLSLSPGDRATLSCRASQSLSGTYLAWYQQKPGQAPRLLIYDASNRAAGIPKRFSGSGSRTDFTLTISRVDPADSAVYYCQQYGSALLTFGGGTKVTVL"
3,binds,"B11 scFv (scFv, V domains shown, VL of the second round pool paired with XB1511 VH; also called XB1511/B11 scFv) VH: QVQLVQSGAEVKKPGSSVKVSCKASGGTFSSYAISWVRQAPGQGLEWMGGIIPIFGTANYAQKFQGRVTITADESTSTAYMELSSLRSEDTAVYYCAIHGGDRSYWGQGTLVTVSS VL: QSVLTQSPGTLSLSPGERATLSCRASQSVSSNYLAWYQQKPGQAPRLLIYGASSRASGIPVRVSGSGSGTDFTLTISRLEPEDFAVYYCQQYGSSPWTFGQGTKLTVL"
